Measurements published in publication PMC13071878 (Journal of Medicinal Chemistry, 2026).
Bridges are numbered along the chain shown (N, C = ends). Where no end group is shown, it is not given here.

B1: synthetic 'two-ring' macrocyclic peptide GR3.1.2 (isomer of GR3.1) (peptide)
peptide: ACFLRCHRDVKCWLWCSG
modifications: also: two-ring macrocycle, isomer of GR3.1, ring type and connectivity not given here
B2: yeast-displayed 'one-ring' macrocyclic peptide GR1.3 (peptide)
chain: ACEPLGFNRWICSG
modifications: also: one-ring macrocycle, closure not given here
B3: GR1.4, synthetic one-ring macrocyclic peptide (peptide)
peptide: ACEPLGYNLFLCSG
notes: also called synthetic GR1.4
B4: GR1.1, synthetic one-ring macrocyclic peptide (peptide)
peptide: ACFFIGFNRWICSG
notes: also called synthetic GR1.1
B5: synthetic 'one-ring' macrocyclic peptide GR1.4 (peptide)
peptide: ACEPLGYNLFLCSG
modifications: also: one-ring macrocycle, ring type and places not given here
B6: GR3.1.2, synthetic isomer 2 of the two-ring macrocyclic peptide GR3.1 (peptide)
peptide: ACFLRCHRDVKCWLWCSG
notes: also called synthetic GR3.1.2
B7: synthetic 'one-ring' macrocyclic peptide GR1.1 (peptide)
peptide: ACFFIGFNRWICSG
modifications: also: one-ring macrocycle, ring type and places not given here
B8: DX600, disulfide-constrained cyclic peptide inhibitor of hACE2 (peptide)
peptide: GDYSHCSPLRYYPWWKCTYPDPEGGG
modifications: disulfide 6-17 (inferred)
notes: source: bought: Selleck Chemicals LLC

Columns and labels:
[1] = target: T1, human angiotensin-converting enzyme 1 (hACE1) (human, UniProt P12821 30-1256); experiment: enzyme inhibition assay; 0.25 nM hACE1, 10 uM fluorogenic substrate Mca-Arg-Pro-Pro-Gly-Phe-Ser-Ala-Phe-Lys(Dnp)-OH, dilutions of inhibitor; 10 mM Tris-HCl pH 7.4, 300 mM NaCl, 100 uM ZnCl2, 0.1% BSA, 0.1% DMSO; conditions: both partners purified
[2] = target: T2, biotinylated extracellular catalytic domain of human angiotensin-converting enzyme 2 (hACE2), produced in … (human, UniProt Q9BYF1 19-615); experiment: flow cytometry on cells; yeast surface titration: yeast cells displaying the ligand incubated with soluble biotinylated hACE2 (100 pM to 3 uM), at least 1 h, room temperature (25 °C, pH 7.4); binding/display MFI, one-site fit; apparent KD; conditions: one partner purified
T2 construct: also called biotinylated hACE2

[3] = target: T3, human angiotensin-converting enzyme 1 (human, UniProt P12821 30-1256); experiment: enzyme inhibition assay (fluorogenic substrate); 0.25 nM hACE1, 10 μM Mca-Arg-Pro-Pro-Gly-Phe-Ser-Ala-Phe-Lys(Dnp)-OH, MP 0.03 nM to 100 μM; 10 mM Tris-HCl pH 7.4, 300 mM NaCl, 100 μM ZnCl2, 0.1% BSA, 0.1% DMSO; conditions: both partners purified
T3 construct: also called hACE1; human ACE1 enzyme

[4] = target: extracellular catalytic domain of human angiotensin-converting enzyme 2 (hACE2), produced in mammalian cells (human, UniProt Q9BYF1 19-615); experiment: ITC; MicroCal iTC200, 25 °C, 100 mM Tris pH 7.4, 200 mM NaCl; hACE2 in the cell (6 or 7 uM), peptide in the syringe (60 or 70 uM); single-site model; conditions: both partners purified
[5] = target: T1, human angiotensin-converting enzyme 1 …; experiment: enzyme inhibition assay; conditions: both partners purified

T1 sequence (P12821 30-1256): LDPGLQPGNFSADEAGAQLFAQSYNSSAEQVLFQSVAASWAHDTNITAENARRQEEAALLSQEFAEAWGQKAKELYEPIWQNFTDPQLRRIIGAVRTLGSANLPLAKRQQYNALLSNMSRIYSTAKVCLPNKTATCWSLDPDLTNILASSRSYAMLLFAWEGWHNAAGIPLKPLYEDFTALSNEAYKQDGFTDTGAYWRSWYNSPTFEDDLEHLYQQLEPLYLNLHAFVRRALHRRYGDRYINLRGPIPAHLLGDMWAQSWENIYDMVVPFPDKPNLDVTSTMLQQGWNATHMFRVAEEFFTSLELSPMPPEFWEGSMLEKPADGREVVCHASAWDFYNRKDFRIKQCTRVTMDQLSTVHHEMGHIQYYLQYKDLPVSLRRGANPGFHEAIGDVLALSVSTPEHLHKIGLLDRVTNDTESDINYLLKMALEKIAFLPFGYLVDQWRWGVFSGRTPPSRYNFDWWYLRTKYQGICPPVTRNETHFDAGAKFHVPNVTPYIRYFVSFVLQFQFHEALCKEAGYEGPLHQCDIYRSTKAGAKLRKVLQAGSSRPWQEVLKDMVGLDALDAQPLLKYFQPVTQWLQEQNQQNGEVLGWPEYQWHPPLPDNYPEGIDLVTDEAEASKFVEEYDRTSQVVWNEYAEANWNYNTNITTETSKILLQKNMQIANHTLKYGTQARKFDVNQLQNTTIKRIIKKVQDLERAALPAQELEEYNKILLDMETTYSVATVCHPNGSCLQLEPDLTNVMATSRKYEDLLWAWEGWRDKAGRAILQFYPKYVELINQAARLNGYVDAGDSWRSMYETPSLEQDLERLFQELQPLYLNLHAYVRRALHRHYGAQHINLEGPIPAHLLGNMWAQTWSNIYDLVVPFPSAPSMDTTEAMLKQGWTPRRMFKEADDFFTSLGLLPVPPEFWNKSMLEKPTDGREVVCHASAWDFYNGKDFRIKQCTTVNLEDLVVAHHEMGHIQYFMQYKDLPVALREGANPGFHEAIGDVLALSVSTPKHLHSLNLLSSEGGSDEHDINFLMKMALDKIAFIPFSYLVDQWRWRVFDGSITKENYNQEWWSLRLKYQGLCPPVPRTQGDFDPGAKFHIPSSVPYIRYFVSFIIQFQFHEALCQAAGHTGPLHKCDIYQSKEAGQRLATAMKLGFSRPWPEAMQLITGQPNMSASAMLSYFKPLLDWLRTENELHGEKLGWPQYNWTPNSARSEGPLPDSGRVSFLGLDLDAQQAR
T3 sequence (P12821 30-1256): as above
T2 sequence (Q9BYF1 19-615): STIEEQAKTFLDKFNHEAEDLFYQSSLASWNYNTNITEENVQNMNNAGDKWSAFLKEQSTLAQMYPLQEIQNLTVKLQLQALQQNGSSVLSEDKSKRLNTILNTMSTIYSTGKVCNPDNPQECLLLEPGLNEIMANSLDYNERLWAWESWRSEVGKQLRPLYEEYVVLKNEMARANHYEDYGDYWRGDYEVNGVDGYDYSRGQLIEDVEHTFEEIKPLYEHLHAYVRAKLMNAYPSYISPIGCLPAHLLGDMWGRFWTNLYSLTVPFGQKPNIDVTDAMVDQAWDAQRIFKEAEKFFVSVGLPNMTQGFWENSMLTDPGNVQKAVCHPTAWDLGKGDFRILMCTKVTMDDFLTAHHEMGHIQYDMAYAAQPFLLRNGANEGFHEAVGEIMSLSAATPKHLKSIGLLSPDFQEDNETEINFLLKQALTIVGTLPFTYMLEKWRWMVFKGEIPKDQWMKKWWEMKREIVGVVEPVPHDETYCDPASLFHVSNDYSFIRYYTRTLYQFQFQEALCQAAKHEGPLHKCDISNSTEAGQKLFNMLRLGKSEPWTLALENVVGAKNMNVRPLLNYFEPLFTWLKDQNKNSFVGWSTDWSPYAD
extracellular catalytic domain of human angiotensin-converting enzyme 2 (hACE2), produced in mammalian cells, sequence (Q9BYF1 19-615): as above

Row | Binder | IC50 [1] [µM] | Ki [3] [µM] | other results
1 | B1 | > 100 | – | –
2 | B2 | – | – | Kd [2]: 0.0538 µM
3 | B3 | – | > 100 | –
4 | B4 | – | > 100 | –
5 | B5 | > 100 | – | stoichiometry N [4]: 1.4 sites
6 | B6 | – | > 100 | –
7 | B7 | > 100 | – | –
8 | B8 | – | – | IC50 [5]: > 100 µM; Ki [5]: > 100 µM
